assay: soluble on expression in E. coli; label from the status in PepcDB or PDB records

Sequence	soluble on expression in E. coli
MGSDKIHHHHHHMITRIEAYKYRCFNTLDLALEQQHVFAGSNGSGKTTLLDIPALFGDLLNMSDINDAFFKPTNGRERARAESAKEVVHQLRGEYFILALEVSLPPSIIEELLRGASDAWQSKFQKSELRPDTARYEISFRINQDKFQVTEEHLTLFPNNELRPEHGMGLIGVDDFRRSAPWFKVLSRSLGTKVKYQAEYQAGKSSILEFGLRDNQLALAALPADHDLYPAALWLQEFLIQGSHCYEPQWPAMRLAASPRDKHAFKADGSSLPWQVHALQQSDPEGLNEWLELVQMALPSIAKIVAKQRIDDSFCYLEVTYSNGMVVPSSGLSHGTLHILALTIIPYLQNAPKIITLEEPENGIHPKAIDAVLEALKLTSDTQLWLSTHSPVVLANTEVEQIITMRFNQDGATEVLKGHEHPRLKTWKGEVDLGTLFAAGVLE	not soluble
HHHHHHATGDDHFYAEYLMPGLQRLLDPESAHRLAVRVTSLGLLPRATFQDSDMLEVKVLGHKFRNPVGIAAGFDKNGEAVDGLYKLGFGFVEVGSVTPQPQEGNPRPRVFRLPEDQAVINRYGFNSHGLSVVEHRLRARQQKQAQLTADGLPLGINLGKNKTSEDAAADYAEGVRTLGPLADYLVVNVSSPNTAGLRSLQGKTELRHLLSKVLQERDALKGTRKPAVLVKIAPDLTAQDKEDIASVARELGIDGLIVTNTTVSRPVGLQGALRSETGGLSGKPLRDLSTQTIREMYALTQGRIPIIGVGGVSSGQDALEKIQAGASLVQLYTALIFLGPPVVVRVKRELEALLKERGFTTVTDAIGADHRR	soluble
MRLITFAGHYFSRIIIMINRALVRSRVLQQAYVYYHRDDADIQSAEKELLNSLEQTYDLYLYYLLLVPELTRLHAEALEANKNKHLATEKDKNPNLRMVRNRLAEKIESCRPLWVRAEQNALNWRSEEAFLRRLLKKIHLSETFTRYMRSDATDDFEADRLFWNELMRDIILPDEELAEVMEEQSIFWDNQIQLIEKIETEEAPDIEEVEQSVRQAVADGNYQTIRQENAPIEIVKEFVLKTIRRIEQDTDPSAILLPAYKEKDDAVFGTTLLRNAIINGQEYRH	not soluble
MSSGLYSMEKKEFDKVLDLERVKPYGDTMNDGKVQLSFTLPLKNNERSAEAAKQIALKMGLEEPSVVMQQSLDEEFTFFVVYGNFVQSVNYNEIHVEAVNSEILSMEETDEYIKENIGRKIVVVGASTGTDAHTVGIDAIMNMKGYAGHYGLERYEMIDAYNLGSQVANEDFIKKAVELEADVLLVSQTVTQKNVHIQNMTHLIELLEAEGLRDRFVLLCGGPRINNEIAKELGYDAGFGPGRFADDVATFAVKTLNDRMNS	soluble
MLSPIENERSEIPSPEKLKLVEEPSDDESKFSNYDSDDWETLSDDLRLLDEEWGKSGGFDVDFSKVRHRFGRGAVHLDDDNMVSEPHETNRDLLNRLSNMAISFYNDKTGIKLELVKVLRANFHPSAAITLYITFEANDPSDGNQTKRYQAVVRYLSFDIEVCSCNPEPSSS	soluble
GSLYKMSSINADFAFNLYRRFTVETPDKNIFFSPVSISAALVMLSFGACCSTQTEIVETLGFNLTDTPMVEIQHGFQHLICSLNFPKKELELQIGNALFIGKHLKPLAKFLNDVKTLYETEVFSTDFSNISAAKQEINSHVEMQTKGKVVGLIQDLKPNTIMVLVNYIHFKAQWANPFDPSKTEDSSSFLIDKTTTVQVPMMHQMEQYYHLVDMELNCTVLQMDYSKNALALFVLPKEGQMESVEAAMSSKTLKKWNRLLQKGWVDLFVPKFSISATYDLGATLLKMGIQHAYSENADFSGLTEDNGLKLSNAAHKAVLHIGEKGTEAAAVPEVELSDQPENTFLHPIIQIDRSFMLLILERSTRSILFLGKVVNPTEA	soluble
MKAYAKKRISYMPSSPSQNVINFEEIETQKENILPLKEGRSAAALSKAIHQPLVEINQVKSSFEQRLIDELPALSDPITLYLEYIKWLNNAYPQGGNSKQSGMLTLLERCLSHLKDLERYRNDVRFLKIWFWYIELFTRNSFMESRDIFMYMLRNGIGSELASFYEEFTNLLIQKEKFQYAVKILQLGIKNKARPNKVLEDRLNHLLRELGENNIQLGNEISMDSLESTVLGKTRSEFVNRLELANQNGTSSDVNLTKNNVFVDGEESDVELFETPNRGVYRDGWENFDLKAERNKENNLRISLLEANTNLGELKQHEMLSQKKRPYDEKLPIFRDSIGRSDPVYQMINTKDQKPEKIDCNFKLIYCEDEESKGGRLEFSLEEVLAISRNVYKRVRTNRKHPREANLGQEESANQKEAEAQSKRPKISRKALVSKSLTPSNQGRMFSGEEYINCPMTPKGRSTETSDIISAVKPRQLTPILEMRESNSFSQSKNSEIISDDDKSSSSFISYPPQR	soluble
MSLDTYTTSEVADLIGVHPNTVRLYEELNLIPKPKRNTNGYRIFNDFHIEQFRFARTALKIEVVQRGLRKDALEIVRTSANRDFDKAISLVNQYLQQLEIEKSNAEEALTIVAQILNGNTPETNKLFLTRKETAEHLNVTIDTLRNWEMNGLLKVKRKQNGYRVYTDEDIKRLKIISALRCANYSLSAILRMLNALSSNPNTNIKTVLDTPKDDDEIISVCDKLITSLKEAEHNAKTMKSHLQIMKKQFSEGHHHHHH	soluble
MGSDKIHHHHHHADKHDHKGQTPLVEVDGNFLYKEDLQAVLPAGLSKDDSLLFAEHYVRSWVEDVLLFNQAQSNIPDNGEIDKLVENYRKALIMHTYQQELISQKLSGEIPEQEIADYYEKNKELFKLDRPLMKGLFIKVPLTAPQLGNVRKWYKTETQDAVEHLEKYSLQNAVKYEYFYDKWVRVADVLDMIPLKAESPEAYMDKNRHIELKDTAFYYFLNISDFRVAGEQEPYEFAQPKVKDMLVNIKRVDFMKQVKDDLYERAVKRKKIINY	not soluble
MSLNHILETLIKLLKVGMEAIDRKGLIAILTSSIGNDEMDDSEQAVMVYNELIDKLQLNIPKDVDYRPNIYSYFGIQKKPNDTILVEMMISIFHIKRFDSELFVFKDKGWQKVNEDELQGLISKMIQVLLVDYKPSLSILKNVVVGLQNSIDVEELVENKQYIGCGHNMFNLDAFEVVGNSIKIFPATRLNLELVKSDVITEKTPPHFNRYMLEFANFDSDLQYFLFQHIAVLLTANTKYRRALLLYGGAKNGKSVFINLVRSFFYSEDIVSKALNELQGRFDKESLVGKKLMASDEIGESRIQEKIVNDLKKLVSVEPVHVDRKGKTQVETTLDLKLAFGTNARLNFPSAHAKALERRIAVIPCEYYVEKADPDLIEKLQDEKKEIFLYLMYVYKQIVKNDIEYLQNDRVTEISHDWLNFGYEFVSSKSASIANQKACINLLRKLIEIKPGSRIKVSELNKVINEEIKVSSQVIKQLIQANFDTQTKLYNGYDYWIDLGWKEADKKEIHDISKKDNIISLDKNENITDDETLDEENLDFDWEDFDDEGHHHHHH	soluble
MGKVLIIGAGGVGTVVAKKVAMNTDVFTEIMLASRTRSKCDKIASEIKNVRIQTAQVDADNVEELVALFESFKPELVINVALPYQDLTIMDACLRCGVNYLDTANYEPLDEAKYEYSWQWAYQDRFRK	not soluble
MSLGKTSMIHAIVDQYSHCEWVENSMSANENNLIWIDLEMTGLDPERDRIIEIATLVTDANLNILAEGPTIAVHQSDEQLALMDDWNVRTHTASGLVERVKASTMGDREAELATLEFLKQWVPAGKSPICGNSIGQDRRFLFKYMPELEAYFHYRYLDVSTLKELARRWKPEILDGFTKQGTHQAMDDIRESVAELAYYREHFIKLEGGSHHHHHH	soluble
MGRVLDRIEVVAEEIRGQAVQSEADCRLTDAAAGLLRDSGAIRLLQPRLYGGYEVHPREFAETVMGVAALDGASGWVTGIVGVHPWELAFADPQVQEEIWGEDNDTWMASPYAPMGVATPVDGGYVLKGRWSFSSGTDHCQWAFLGAMVGDGEGGIATPSSLHVILPRTDYQIVEDTWDVIGLRGTGSKDLIVDGAFVPGYRTLNAAKVMDGRAQKEAGRPEPLFNMPYSCMFPLGITAAVIGITEGALACHIAVQKDRVAITGQKIKEDPYVLSAIGESAAEINASRVSLIETADRFYDKVDAGKEITFEERAIGRRTQIAAAWRAVRAADEIFARAGGGALHYKTPMQRFWRDAHAGLAHAVHVPGPTNHASALTQLGGEPQGMMRAMI	soluble
MIDKQSGIPIYIQIQSEIKKKMEDGVWKVGTSIPAERQLAEMFHVSRMTVRQAIQGLVDDNILQRRVGAGTFIAEKKLTERLEAVTSFTNLMLQEGKVPSTRIVSYGIRPASTQEQEALQLPENSNVMKIERIRYGDRVPILYEVAAIPEKIASLLTKEDIMDSLYKAIELKLGQPIGEAEQIMEASLVSEKIAPYLDVKLGSPVMKLRQITTLEDGRPFEFTRSQYVGSRFQFVARIKQ	not soluble
MGSDKIHHHHHHMNFLDGHLFPENQQPLIITAAPYAPGWLPSDFPEDIPVTMEEQIQKAVDCYNAGATVLHLHVRELDGKGSKRLSKFNELVAGVRKAVPEMIIQVGGSISFAPENEGQAAKWLSDDTRHMLADLEPTPDQVTVTVNTSQMNVTDHAEDADFRGTSRENPAIFNAYKEMTVPAQPGWVEEHVRRLTAKGIQSAFQCYNTNSFESVERLMRRGFYKGPLVMNWVAIGGGMDTPNVYSLGNFMRGVPDGAVVTVESNVRNVLPVNMMGIAMGLHVRCGTEDVLWNQKRTAKMSTVKQIEQLVRISHEFGREIATAKEAREISKIGVFYDTVEESLQANGFAPNRNGGTQGYLRKTR	not soluble
MPDGAQIQGLRPNGQSMEADMKLAVVTGQIVCTVRHQGLAHDKLLMVEMIDAQGNPDGQCAVAIDSIGAGTGEWVLLVSGSSARQAHRSELSPVDLCVIGIVDEVVAGGKVVFHKLEHHHHHH	not soluble
MVKSIVILIETVTMKIPAVYSDGSFKTFNDSETTAQKLVDSGVVNTFAFGPTLVENGKVAVSENEEVGQDMADNPRTAIVVNEESDRSVHYIVIVSDGRTSESSGLTLYEMAELMKSYGVMTGYNLDVGDSSTMYSNGQVINKPTRKRKQNLRKGGERYRLHRLLKNLLASTFSPPILVLEHHHHHH	soluble
MTDLFASGDNSSNSFDDSNDEIARKNETAFKYTTIFHTNLSEKLYHELCALAFGEFDIPQGQISPLMWTRLHEIYSEVEMQTRKLPAGSNYSASSQKYANEAVQIASVLSIYTALAHEYDETVEVSLLSKLVVEDVEFRRIYALLLWSEKAISEQQYEKGLGDKVRKLEGIKSSRINSMMALKRPTFGAANAPKDASLDPDAPGTKEDQALEQMAMNVFFQLIRSGETSKAANLAIDLGMGAIGAQLQLHSMLRNPLDIPLEASKQNFGEYKRSRRAKYYQMTQKLIEQSQGSEDDAYWMLISAIRGNIQPMLKAGKSVIEKVWAYANSAVLARILAAEGAMTQETISTLFNVPLTSKSILDELRSEADRTKEVYILLRVIDDMLNDDIEDLYKFANETVGEFVPNDKNCQVNMLALDIFFHLVAVSYASGFEPNDDGNAVIILGFDDLRARSGTSSHKKMAAFYSRFLPEDMKLPEIVETMKAVDSDEEREILAESLKQSDIDFGRCACTLIEQIRKDDKTKVVTLEEQIDHWHWLLIGGEETALAALEECNRLVRKVMLSTPIDESVIRQIIRKALHFEVPKLLSQAVENEATVLSLITDGTLFEQKPGSQLAINKIEHAALEFYGLCSFVDVNNFMITIALKLGLMFKYTPITDDELSMIGGVKRLDNTTAADWEASLRVRARAEQTLREEVLKKRAAEHNTRVGMVQQHLDTVLPMLRGLVNNIGVRPEYFLSPRANGDPMRVHRKEIQEIRNLFLPQFFILLAQAAVRLDDTTNFNDFFTSFNNDLGLDQEWMVFIKAFYAELNLKVE	soluble
